# Test results: US11278600B2, “Human alpha-galactosidase variants” (Codexis, Inc., priority 2014, dated 2022)
# Where a chain is given by its changes, count along the chain named.
# B1: 76 (protein)
# chain: LDNGLARTPTMGWLHWERFMCNLDCQEEPDSCISEKLFMEMAELMVSEGWKDAGYEYLCIDDCWMAPQRDSEGRLQADPQRFPHGIRQLANYVHSKGLKLGIYADVGNKTCAGFPGSFGYYDIDAQTFADWGVDLLKFDGCYCDSLENLADGYKHMSLALNRTGRSIVYSCEWPLYMWPFQKPNYTEIRQYCNHWRNFADIDDSWRSIKSILDWTSFNQERIVDVAGPGGWNDPDMLVIGNFGLSWNQQVTQMALWAIMAAPLFMSNDLRHISPQAKALLQDKDVIAINQDPLGKQGYQLRQGDNFEVWERPLSGLAWAVAMINRQEIGGPRSYTIAVASLGKGVACNPACFITQLLPVKRKLGFYEWTSRLRSHINPTGTVLLQLENTMQMSLKDLL
# modifications: Synthetic Polypeptide sequence of Variant No. 76
# B2: 77 (protein)
# chain: B1 chain with R206T, V359S, L394K, K395D, D396L
# modifications: Synthetic Polypeptide sequence of Variant No. 77 of mature Human GLA
# B3: 78 (protein)
# chain: B1 chain with R206K, K343D, L394K, K395D, D396L
# modifications: Synthetic Polypeptide sequence of Variant No. 78 of mature Human GLA
# B4: 79 (protein)
# chain: B1 chain with R206K, K343G, L394K, K395D, D396L
# modifications: Synthetic Polypeptide sequence of Variant No. 79 of mature Human GLA
# B5: 80 (protein)
# chain: B1 chain with R206K, K362Q, L394K, K395D, D396L
# modifications: Synthetic Polypeptide sequence of Variant No. 80 of mature Human GLA
# B6: 81 (protein)
# chain: B1 chain with R206K, K362R, L394K, K395D, D396L
# modifications: Synthetic Polypeptide sequence of Variant No. 81 of mature Human GLA
# B7: 82 (protein)
# chain: B1 chain with K36D, R206K, L394K, K395D, D396L
# modifications: Synthetic Polypeptide sequence of Variant No. 82 of mature Human GLA
# B8: 83 (protein)
# chain: B1 chain with K36E, R206K, L394K, K395D, D396L
# modifications: Synthetic Polypeptide sequence of Variant No. 83 of mature Human GLA
# B9: 85 (protein)
# chain: B1 chain with R206K, L394K, K395G, D396L
# modifications: Synthetic Polypeptide sequence of Variant No. 85 of mature Human GLA
# B10: 86 (protein)
# chain: B1 chain with R206K, L394K, K395P, D396L
# modifications: Synthetic Polypeptide sequence of Variant No. 86 of mature Human GLA
# B11: 87 (protein)
# chain: B1 chain with R206K, L394K, K395R, D396L
# modifications: Synthetic Polypeptide sequence of Variant No. 87 of mature Human GLA
# B12: 88 (protein)
# chain: B1 chain with R206K, L394K, K395S, D396L
# modifications: Synthetic Polypeptide sequence of Variant No. 88 of mature Human GLA
# B13: 89 (protein)
# chain: B1 chain with R206K, L394K, K395T, D396L
# modifications: Synthetic Polypeptide sequence of Variant No. 89 of mature Human GLA
# B14: 90 (protein)
# chain: B1 chain with K96I, R206K, L394K, K395D, D396L
# modifications: Synthetic Polypeptide sequence of Variant No. 90 of mature Human GLA
# B15: 91 (protein)
# chain: B1 chain with K96L, R206K, L394K, K395D, D396L
# modifications: Synthetic Polypeptide sequence of Variant No. 91 of mature Human GLA
# B16: 92 (protein)
# chain: B1 chain with K96R, R206K, L394K, K395D, D396L
# modifications: Synthetic Polypeptide sequence of Variant No. 92 of mature Human GLA
# Assay: HTP-analysis of yeast culture supernatants, no challenge (MUGal hydrolysis)
# Assay type: biochemical
# Conditions: activity of the variant/activity of WT GLA (SEQ ID NO: 5), yeast supernatant
# Outline: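 GLA variants were expressed in INVSc1 yeast grown in SD-Ura broth with glucose at 30° C., and culture supernatants were collected after 66-84 h. Supernatant was mixed with McIlvaine buffer pH 4.8 and MUGal (2 mM stock) in 50 mM citrate, 200 mM KCl, pH 4.6, incubated at 37° C. for 30-180 minutes, then quenched with sodium carbonate.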
row,Molecule,Relative Activity of GLA Variants After No Challenge (NC)
1,B1,+ (+ = 0.5 to 1.5 relative activity over WT GLA (SEQ ID NO: 5))
2,B2,+ (+ = 0.5 to 1.5 relative activity over WT GLA (SEQ ID NO: 5))
3,B3,++ (++ = >1.5 to 2.5 relative activity over WT GLA (SEQ ID NO: 5))
4,B4,++ (++ = >1.5 to 2.5 relative activity over WT GLA (SEQ ID NO: 5))
5,B5,+ (+ = 0.5 to 1.5 relative activity over WT GLA (SEQ ID NO: 5))
6,B6,+ (+ = 0.5 to 1.5 relative activity over WT GLA (SEQ ID NO: 5))
7,B7,+ (+ = 0.5 to 1.5 relative activity over WT GLA (SEQ ID NO: 5))
8,B8,+ (+ = 0.5 to 1.5 relative activity over WT GLA (SEQ ID NO: 5))
9,B9,+ (+ = 0.5 to 1.5 relative activity over WT GLA (SEQ ID NO: 5))
10,B10,++ (++ = >1.5 to 2.5 relative activity over WT GLA (SEQ ID NO: 5))
11,B11,+ (+ = 0.5 to 1.5 relative activity over WT GLA (SEQ ID NO: 5))
12,B12,+ (+ = 0.5 to 1.5 relative activity over WT GLA (SEQ ID NO: 5))
13,B13,++ (++ = >1.5 to 2.5 relative activity over WT GLA (SEQ ID NO: 5))
14,B14,+ (+ = 0.5 to 1.5 relative activity over WT GLA (SEQ ID NO: 5))
15,B15,+ (+ = 0.5 to 1.5 relative activity over WT GLA (SEQ ID NO: 5))
16,B16,+ (+ = 0.5 to 1.5 relative activity over WT GLA (SEQ ID NO: 5))

# Assay: HTP-analysis of supernatants pretreated with acid (MUGal hydrolysis)
# Assay type: biochemical
# Conditions: challenge at pH 4.2; activity of the variant/activity of WT GLA (SEQ ID NO: 5); yeast supernatant
# Outline: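 Supernatants from INVSc1 yeast secreting GLA variants were challenged at 37° C. for 1-3 h in McIlvaine buffer at pH 3.3-4.3. Residual activity was then measured on 4 mM MUGal substrate stock at pH 4.8 with citrate buffer pH 4.3, over 30-180 min at 37° C. Reactions were quenched with sodium carbonate and read by fluorescence (Ex 355/Em 448 nm).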
row,Molecule,Relative Activity of GLA Variants After Challenge at pH 4.2
1,B1,+++ (+++ = >2.5 relative activity over WT GLA (SEQ ID NO: 5))
2,B2,++ (++ = >1.5 to 2.5 relative activity over WT GLA (SEQ ID NO: 5))
3,B3,++ (++ = >1.5 to 2.5 relative activity over WT GLA (SEQ ID NO: 5))
4,B4,++ (++ = >1.5 to 2.5 relative activity over WT GLA (SEQ ID NO: 5))
5,B5,+ (+ = 0.5 to 1.5 relative activity over WT GLA (SEQ ID NO: 5))
6,B6,+ (+ = 0.5 to 1.5 relative activity over WT GLA (SEQ ID NO: 5))
7,B7,+ (+ = 0.5 to 1.5 relative activity over WT GLA (SEQ ID NO: 5))
8,B8,++ (++ = >1.5 to 2.5 relative activity over WT GLA (SEQ ID NO: 5))
9,B9,+ (+ = 0.5 to 1.5 relative activity over WT GLA (SEQ ID NO: 5))
10,B10,++ (++ = >1.5 to 2.5 relative activity over WT GLA (SEQ ID NO: 5))
11,B11,++ (++ = >1.5 to 2.5 relative activity over WT GLA (SEQ ID NO: 5))
12,B12,++ (++ = >1.5 to 2.5 relative activity over WT GLA (SEQ ID NO: 5))
13,B13,+ (+ = 0.5 to 1.5 relative activity over WT GLA (SEQ ID NO: 5))
14,B14,+ (+ = 0.5 to 1.5 relative activity over WT GLA (SEQ ID NO: 5))
15,B15,+ (+ = 0.5 to 1.5 relative activity over WT GLA (SEQ ID NO: 5))
16,B16,+ (+ = 0.5 to 1.5 relative activity over WT GLA (SEQ ID NO: 5))

# Assay: HTP-analysis of supernatants pretreated with base (MUGal hydrolysis)
# Assay type: biochemical
# Conditions: challenge at pH 7.1; activity of the variant/activity of WT GLA (SEQ ID NO: 5); yeast supernatant
# Outline: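 GLA variants were secreted by transformed INVSc1 yeast grown 66-84 h at 30° C. Supernatants were exposed to neutral-to-basic buffers (pH 7.0-9.7) at 37° C for 1-18 h, then assayed with MUGal in acidic citrate/McIlvaine buffer, with fluorescence read after quenching.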
row,Molecule,Relative Activity of GLA Variants After Challenge at pH 7.1
1,B1,++ (++ = >1.5 to 2.5 relative activity over WT GLA (SEQ ID NO: 5))
2,B2,+ (+ = 0.5 to 1.5 relative activity over WT GLA (SEQ ID NO: 5))
3,B3,++ (++ = >1.5 to 2.5 relative activity over WT GLA (SEQ ID NO: 5))
4,B4,++ (++ = >1.5 to 2.5 relative activity over WT GLA (SEQ ID NO: 5))
5,B5,+ (+ = 0.5 to 1.5 relative activity over WT GLA (SEQ ID NO: 5))
6,B6,+ (+ = 0.5 to 1.5 relative activity over WT GLA (SEQ ID NO: 5))
7,B7,+ (+ = 0.5 to 1.5 relative activity over WT GLA (SEQ ID NO: 5))
8,B8,+ (+ = 0.5 to 1.5 relative activity over WT GLA (SEQ ID NO: 5))
9,B9,+ (+ = 0.5 to 1.5 relative activity over WT GLA (SEQ ID NO: 5))
10,B10,++ (++ = >1.5 to 2.5 relative activity over WT GLA (SEQ ID NO: 5))
11,B11,+ (+ = 0.5 to 1.5 relative activity over WT GLA (SEQ ID NO: 5))
12,B12,+ (+ = 0.5 to 1.5 relative activity over WT GLA (SEQ ID NO: 5))
13,B13,+ (+ = 0.5 to 1.5 relative activity over WT GLA (SEQ ID NO: 5))
14,B14,+ (+ = 0.5 to 1.5 relative activity over WT GLA (SEQ ID NO: 5))
15,B15,++ (++ = >1.5 to 2.5 relative activity over WT GLA (SEQ ID NO: 5))
16,B16,+ (+ = 0.5 to 1.5 relative activity over WT GLA (SEQ ID NO: 5))
